These results are taken from patent US20230363362A1, “GENETICALLY MODIFIED NON-HUMAN ANIMAL WITH HUMAN OR CHIMERIC GLP1R” (Biocytogen Pharmaceuticals (Beijing) Co., Ltd., priority 2020, published 2023).

For assay [1], the target named is T1, human GLP1R (Homo sapiens, UniProt P43220).
T1 construct: 61-1452; 1-463; expressed in transfected cells; host or cells: GLP1R gene humanized homozygous mice (C57BL/6 ES cells); The human CDS is inserted into mouse exon 1 at the endogenous Glp1r locus, under mouse regulatory elements
The assay is described as follows: In vivo drug efficacy experiment (Example 2), GLP1R gene humanized homozygous mice. Details: species or system mouse. How it is done: (§1) Ten 7-week-old male wild-type C57BL/6 mice (WT) and ten GLP1R gene humanized homozygous mice (H/H) were selected, and randomly divided (according to body weight) into control group (G1, G3) and administration Group (G2, G4). The control group was injected subcutaneously (s.c.) phosphate buffered saline (PBS). The administration group was injected subcutaneously with 10 mg/kg GLP1R agonist Dulaglutide, administered once every two days, with a total of 5 administrations. Before each administration, the body weight and non-fasting blood glucose concentration of the mice were measured. After the second and fourth doses, the mice were fasted overnight, and the glucose tolerance test (IPGTT) was used to evaluate the tolerance of the mice to glucose by intraperitoneal injection of 2 g/kg glucose D-Glucose. Blood was collected to determine the blood glucose value at 15 min, 30 min, 60 min, 120 min after injection, and the area under the curve (AUC) was calculated.

Assay [2] has as its target T2, mouse GLP1R (Mus musculus, UniProt O35659).
T2 sequence (O35659 22-463): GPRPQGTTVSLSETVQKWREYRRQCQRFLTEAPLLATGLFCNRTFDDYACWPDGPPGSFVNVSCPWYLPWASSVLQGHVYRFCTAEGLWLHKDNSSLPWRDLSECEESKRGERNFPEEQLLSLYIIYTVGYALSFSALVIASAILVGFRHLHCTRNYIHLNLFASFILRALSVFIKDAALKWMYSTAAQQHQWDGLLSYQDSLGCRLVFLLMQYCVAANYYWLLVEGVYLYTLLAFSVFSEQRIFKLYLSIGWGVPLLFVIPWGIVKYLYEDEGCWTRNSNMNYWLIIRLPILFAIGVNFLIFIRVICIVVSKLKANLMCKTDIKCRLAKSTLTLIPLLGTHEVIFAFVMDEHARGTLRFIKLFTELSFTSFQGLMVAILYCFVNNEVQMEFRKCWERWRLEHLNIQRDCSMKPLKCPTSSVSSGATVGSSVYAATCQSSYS
The assay is described as follows: High-fat diet induced obesity model (Example 3), wild-type C57BL/6 mice. The class given is in vivo. More on the design: Ten 7-week-old male wild-type C57BL/6 mice (WT); endogenous in cells; host or cells: wild-type C57BL/6 mice (whole animal, in vivo). How it is done: (§2) Twenty 7-week-old male wild-type C57BL/6 mice (WT) and twenty GLP1R humanized homozygous mice (I/H) were selected. All mice were given a high-fat diet for 12 weeks to induce obesity and high blood sugar.
(§3) On the 13th week, the mice were grouped and administered either Dulaglutide or PBS according to Table 5. The day of grouping was recorded as DO, the next day was recorded as D1, and so on for calculation. When a mouse lost more than 20% of its body weight, it was euthanized to end the experiment. The administration group was given 1 mg/kg Dulaglutide by subcutaneous injection (sc), and the control group was given the same dose of control PBS, once every two days, with a total of 5 administrations. The test protocol is as follows: the random blood glucose (RBG) concentration and body weight were measured before each administration; the mice were fasted after the second administration, and the glucose tolerance test ([…]) was carried out the next day (protocol: after the fasting blood glucose was tested, 2 g/kg D-glucose was injected intraperitoneally, and blood glucose was measured at 15 min, 30 min, 60 min and 120 min after injection; the glucose solution was prepared at the ratio of 20% mass fraction, the administration dose was 10 ul/g body weight, and the solvent was physiological saline). After the fourth administration, the mice were fasted, and the fasting blood glucose was measured on the second day; blood was collected from the canthus within 48 hours after the last administration, and the supernatant was obtained by centrifugation. The levels of serum glucagon and insulin were determined by ELISA.

Assay [3] addresses T1, human GLP1R. The note with it: background statement, no test described; cited from earlier work.
The target of assay [4] is T1, human GLP1R. The assay is described as follows: High-fat diet induced obesity model (Example 3), GLP1R humanized homozygous mice. The class given is in vivo, mouse. Particulars: G4 GLP1R humanized. Here is the method: as §2, §3
Assay [5] concerns the target T2, mouse GLP1R. The note with it: background statement, no test described; cited from earlier work.
Assay [6] has as its target T2, mouse GLP1R. Briefly: In vivo drug efficacy experiment (Example 2), wild-type C57BL/6 mice. Details: Ten 7-week-old male wild-type C57BL/6 mice (WT); endogenous in cells; host or cells: wild-type C57BL/6 mice (whole animal, in vivo). Here is the method:
as §1

T1 sequence (P43220 24-463): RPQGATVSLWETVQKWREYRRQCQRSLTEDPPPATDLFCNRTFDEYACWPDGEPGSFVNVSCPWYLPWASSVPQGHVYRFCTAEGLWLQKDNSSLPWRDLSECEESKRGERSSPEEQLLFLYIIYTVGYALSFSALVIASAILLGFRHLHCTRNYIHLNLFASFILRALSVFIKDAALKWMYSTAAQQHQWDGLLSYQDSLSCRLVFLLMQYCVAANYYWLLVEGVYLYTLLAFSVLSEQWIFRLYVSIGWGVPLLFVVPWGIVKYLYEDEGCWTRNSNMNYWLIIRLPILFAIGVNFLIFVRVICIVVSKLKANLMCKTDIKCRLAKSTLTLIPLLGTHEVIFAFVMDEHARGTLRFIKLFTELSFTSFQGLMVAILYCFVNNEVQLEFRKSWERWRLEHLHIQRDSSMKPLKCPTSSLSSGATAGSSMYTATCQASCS

Dulaglutide: the “body weight during the experiment” value in assay [1] (G4, H/H mice, s.c. Q2d x 5, 10 mg/kg / 1 mg/kg (Table 5), FIG. 11) is “remained stable and did not change significantly”; in assay [6] (G2, WT C57BL/6 mice, s.c. Q2d x 5, 10 mg/kg / 1 mg/kg (Table 5), FIG. 11), “remained stable and did not change significantly”. Moreover, the fasting blood glucose entry in assay [1] (G4 H/H vs PBS control G3, fasted overnight, s.c. Q2d x 5, FIG. 13) was “reduced”; in assay [6] (G2 WT vs PBS control G1, fasted overnight, s.c. Q2d x 5, FIG. 13) it was “reduced”. In addition, the non-fasting blood glucose entry in assay [1] (G4 H/H vs PBS control G3, s.c. Q2d x 5, 10 mg/kg / 1 mg/kg (Table 5), FIG. 12) is given as “reduced”; in assay [6] (G2 WT vs PBS control G1, s.c. Q2d x 5, 10 mg/kg / 1 mg/kg (Table 5), FIG. 12), “reduced”. Moreover, the “area under the curve (AUC) of IPGTT” value is listed as “significant downward trend” in assay [1] (H/H mice, 2 g/kg D-Glucose i.p., blood glucose 15-120 min, P≤0.05, FIG. 15) and “significant downward trend” in assay [6] (WT mice, 2 g/kg D-Glucose i.p., blood glucose 15-120 min, P≤0.05, FIG. 15). The body weight result is given as “decreased more significantly” in assay [2] (G2 C57BL/6, high-fat diet 12 weeks, 1 mg/kg s.c. Q2d*5, vs PBS control, FIG. 23) and “decreased more significantly” in assay [4] (high-fat diet 12 weeks, 1 mg/kg s.c. Q2d*5, vs PBS control, FIG. 23). The “blood glucose (non-fasting)” value is given as “significantly reduced” in assay [2] (G2 C57BL/6, high-fat diet, 1 mg/kg s.c. Q2d*5, FIG. 25) and “significantly reduced” in assay [4] (high-fat diet, 1 mg/kg s.c. Q2d*5, FIG. 25). Moreover, the “food intake in the 24 hours after the first administration” value is “significantly lower” in assay [2] (G2 C57BL/6, high-fat diet, 1 mg/kg s.c., vs control group, FIG. 24B) and “significantly lower” in assay [4] (high-fat diet, 1 mg/kg s.c., vs control group, FIG. 24B). Further, the “plasma levels of glucagon” value is “decreased” in assay [2] (G2 C57BL/6, high-fat diet, 24 hours after the drug administration, FIG. 28); “decreased, and the decrease was more obvious” in assay [4] (high-fat diet, 24 hours after the drug administration, FIG. 28). The “level of glucagon-like peptide-1” value in assay [2] (G2 C57BL/6, high-fat diet, 24 hours after the drug administration, FIG. 29) is on record as “significantly increased”; in assay [4] (high-fat diet, 24 hours after the drug administration, FIG. 29) it was “significantly increased”. For the same substance, the insulin level result is listed as “tendency to increase” in assay [2] (G2 C57BL/6, high-fat diet, Day 10, 15 min time point, vs control group, FIG. 27) and “tendency to increase” in assay [4] (high-fat diet, Day 10, 15 min time point, vs control group, FIG. 27). Also, the “glucose tolerance (glucose tolerance test)” value was “significantly improve” in assay [2] (G2 C57BL/6, high-fat diet, after second administration, fasted, 2 g/kg D-glucose i.p., FIG. 26) and “significantly improve” in assay [4] (high-fat diet, after second administration, fasted, 2 g/kg D-glucose i.p., FIG. 26). The “affinity for human GLP1R” value in assay [3] is given as “has affinity”. For the same substance, the “affinity for mouse GLP1R” value in assay [5] was “has affinity”.
